A word on the Kd: it is a measure of binding affinity in units of concentration. Read a low Kd as a tighter complex.

B1: IL6R-BP183/IL6R-L (antibody, human IgG1, kappa)
heavy: QVQLQESGPGLVKPSETLSLTCAVSGHSISHDHAWSWVRQPPGEGLEWIGFISYSGITNYNPSLQGRVTISRDNSKNTLYLQMNSLRAEDTAVYYCARSLARTTAMDYWGEGTLVTVSSASTKGPSVFPLAPSSKSTSGGTAALGCLVKDYFPEPVTVSWNSGALTSGVHTFPAVLQSSGLYSLSSVVTVPSSSLGTQTYICNVNHKPSNTKVDKKVEPKSCDKTHTCPPCPAPDYLGGDSVFLFPPKPKDTLMISRTPEVTCVVVDVSHEDGEVKFNWYVDGVEVHNAKTKPREEQYNSTYRVVSVLTVLHQDWLNGKEYKCKVSNAALPKPIEKTISKAKGQPREPQVYTLPPSRDELTKNQVSLTCLVKGFYPSDIAVEWESNGQPENNYKTTPPVLDSDGSFFLYSKLTVDKSRWQQGNVFSCSVMHEALHNHYTQESLSLSP
light: not shown
notes: copies: 2 + 2
B2: IL6R-BP196/IL6R-L (antibody, human IgG1, kappa)
heavy: QVQLQESGPGLVKPSETLSLTCAVSGHSISHDHAWSWVRQPPGEGLEWIGFISYSGITNYNPSLQGRVTISRDNSKNTLYLQMNSLRAEDTAVYYCARSLARTTAMDYWGEGTLVTVSSASTKGPSVFPLAPSSKSTSGGTAALGCLVKDYFPEPVTVSWNSGALTSGVHTFPAVLQSSGLYSLSSVVTVPSSSLGTQTYICNVNHKPSNTKVDKKVEPKSCDKTHTCPPCPAPEYLGGDSVFLFPPKPKDTLMISRTPEVTCVVVDVSDEDGEVKFNWYVDGVEVHNAKTKPREEQYNSTYRVVSVLTVLHQDWLNGKEYKCKVSNAALPKPIEKTISKAKGQPREPQVYTLPPSRDELTKNQVSLTCLVKGFYPSDIAVEWESNGQPENNYKTTPPVLDSDGSFFLYSKLTVDKSRWQQGNVFSCSVMHEALHNHYTQESLSLSP
light: not shown
notes: copies: 2 + 2
B3: IL6R-BP210/IL6R-L (antibody, human IgG1, kappa)
heavy: QVQLQESGPGLVKPSETLSLTCAVSGHSISHDHAWSWVRQPPGEGLEWIGFISYSGITNYNPSLQGRVTISRDNSKNTLYLQMNSLRAEDTAVYYCARSLARTTAMDYWGEGTLVTVSSASTKGPSVFPLAPSSKSTSGGTAALGCLVKDYFPEPVTVSWNSGALTSGVHTFPAVLQSSGLYSLSSVVTVPSSSLGTQTYICNVNHKPSNTKVDKKVEPKSCDKTHTCPPCPAPELLGDDSVFLFPPKPKDTLMISRTPEVTCVVVDVSDEDGEVKFNWYVDGVEVHNAKTKPREEQYNSTYRVVSVLTVLHQDWLNGKEYKCKVSNKALPRPIEKTISKAKGQPREPQVYTLPPSRDELTKNQVSLTCLVKGFYPSDIAVEWESNGQPENNYKTTPPVLDSDGSFFLYSKLTVDKSRWQQGNVFSCSVMHEALHNHYTQESLSLSP
light: not shown
notes: copies: 2 + 2
B4: IL6R-BP186/IL6R-L (antibody, human IgG1, kappa)
heavy: QVQLQESGPGLVKPSETLSLTCAVSGHSISHDHAWSWVRQPPGEGLEWIGFISYSGITNYNPSLQGRVTISRDNSKNTLYLQMNSLRAEDTAVYYCARSLARTTAMDYWGEGTLVTVSSASTKGPSVFPLAPSSKSTSGGTAALGCLVKDYFPEPVTVSWNSGALTSGVHTFPAVLQSSGLYSLSSVVTVPSSSLGTQTYICNVNHKPSNTKVDKKVEPKSCDKTHTCPPCPAPDYLGDDSVFLFPPKPKDTLMISRTPEVTCVVVDVSHEDGEVKFNWYVDGVEVHNAKTKPREEQDNSTYRVVSVLTVLHQDWLNGKEYKCKVSNAALPKPIEKTISKAKGQPREPQVYTLPPSRDELTKNQVSLTCLVKGFYPSDIAVEWESNGQPENNYKTTPPVLDSDGSFFLYSKLTVDKSRWQQGNVFSCSVMHEALHNHYTQESLSLSP
light: not shown
notes: copies: 2 + 2
B5: IL6R-BP204/IL6R-L (antibody, human IgG1, kappa)
heavy: QVQLQESGPGLVKPSETLSLTCAVSGHSISHDHAWSWVRQPPGEGLEWIGFISYSGITNYNPSLQGRVTISRDNSKNTLYLQMNSLRAEDTAVYYCARSLARTTAMDYWGEGTLVTVSSASTKGPSVFPLAPSSKSTSGGTAALGCLVKDYFPEPVTVSWNSGALTSGVHTFPAVLQSSGLYSLSSVVTVPSSSLGTQTYICNVNHKPSNTKVDKKVEPKSCDKTHTCPPCPAPDLLGGDSVFLFPPKPKDTLMISRTPEVTCVVVDVSHEDGEVKFNWYVDGVEVHNAKTKPREEQYNSTYRVVSVLTVLHQDWLNGKEYKCKVSNAALPRPIEKTISKAKGQPREPQVYTLPPSRDELTKNQVSLTCLVKGFYPSDIAVEWESNGQPENNYKTTPPVLDSDGSFFLYSKLTVDKSRWQQGNVFSCSVMHEALHNHYTQESLSLSP
light: not shown
notes: copies: 2 + 2
B6: IL6R-BP188/IL6R-L (antibody, human IgG1, kappa)
heavy: QVQLQESGPGLVKPSETLSLTCAVSGHSISHDHAWSWVRQPPGEGLEWIGFISYSGITNYNPSLQGRVTISRDNSKNTLYLQMNSLRAEDTAVYYCARSLARTTAMDYWGEGTLVTVSSASTKGPSVFPLAPSSKSTSGGTAALGCLVKDYFPEPVTVSWNSGALTSGVHTFPAVLQSSGLYSLSSVVTVPSSSLGTQTYICNVNHKPSNTKVDKKVEPKSCDKTHTCPPCPAPDLLGDDSVFLFPPKPKDTLMISRTPEVTCVVVDVSDEDGEVKFNWYVDGVEVHNAKTKPREEQYNSTYRVVSVLTVLHQDWLNGKEYKCKVSNKALPKPIEKTISKAKGQPREPQVYTLPPSRDELTKNQVSLTCLVKGFYPSDIAVEWESNGQPENNYKTTPPVLDSDGSFFLYSKLTVDKSRWQQGNVFSCSVMHEALHNHYTQESLSLSP
light: not shown
notes: copies: 2 + 2
B7: IL6R-BP199/IL6R-L (antibody, human IgG1, kappa)
heavy: QVQLQESGPGLVKPSETLSLTCAVSGHSISHDHAWSWVRQPPGEGLEWIGFISYSGITNYNPSLQGRVTISRDNSKNTLYLQMNSLRAEDTAVYYCARSLARTTAMDYWGEGTLVTVSSASTKGPSVFPLAPSSKSTSGGTAALGCLVKDYFPEPVTVSWNSGALTSGVHTFPAVLQSSGLYSLSSVVTVPSSSLGTQTYICNVNHKPSNTKVDKKVEPKSCDKTHTCPPCPAPDLLGGDSVFLFPPKPKDTLMISRTPEVTCVVVDVSHEDPEVKFNWYVDGVEVHNAKTKPREEQYNSTYRVVSVLTVLHQDWLNGKEYKCKVSNDALPRPIEKTISKAKGQPREPQVYTLPPSRDELTKNQVSLTCLVKGFYPSDIAVEWESNGQPENNYKTTPPVLDSDGSFFLYSKLTVDKSRWQQGNVFSCSVMHEALHNHYTQESLSLSP
light: not shown
notes: copies: 2 + 2
B8: IL6R-BP190/IL6R-L (antibody, human IgG1, kappa)
heavy: QVQLQESGPGLVKPSETLSLTCAVSGHSISHDHAWSWVRQPPGEGLEWIGFISYSGITNYNPSLQGRVTISRDNSKNTLYLQMNSLRAEDTAVYYCARSLARTTAMDYWGEGTLVTVSSASTKGPSVFPLAPSSKSTSGGTAALGCLVKDYFPEPVTVSWNSGALTSGVHTFPAVLQSSGLYSLSSVVTVPSSSLGTQTYICNVNHKPSNTKVDKKVEPKSCDKTHTCPPCPAPELLGDDSVFLFPPKPKDTLMISRTPEVTCVVVDVSDEDGEVKFNWYVDGVEVHNAKTKPREEQYNSTYRVVSVLTVLHQDWLNGKEYKCKVSNKALPKPIEKTISKAKGQPREPQVYTLPPSRDELTKNQVSLTCLVKGFYPSDIAVEWESNGQPENNYKTTPPVLDSDGSFFLYSKLTVDKSRWQQGNVFSCSVMHEALHNHYTQESLSLSP
light: not shown
notes: copies: 2 + 2
B9: IL6R-BP213/IL6R-L (antibody, human IgG1, kappa)
heavy: QVQLQESGPGLVKPSETLSLTCAVSGHSISHDHAWSWVRQPPGEGLEWIGFISYSGITNYNPSLQGRVTISRDNSKNTLYLQMNSLRAEDTAVYYCARSLARTTAMDYWGEGTLVTVSSASTKGPSVFPLAPSSKSTSGGTAALGCLVKDYFPEPVTVSWNSGALTSGVHTFPAVLQSSGLYSLSSVVTVPSSSLGTQTYICNVNHKPSNTKVDKKVEPKSCDKTHTCPPCPAPDLLGGDSVFLFPPKPKDTLMISRTPEVTCVVVDVSDEDGEVKFNWYVDGVEVHNAKTKPREEQYNSTYRVVSVLTVLHQDWLNGKEYKCKVSNKALPRPIEKTISKAKGQPREPQVYTLPPSRDELTKNQVSLTCLVKGFYPSDIAVEWESNGQPENNYKTTPPVLDSDGSFFLYSKLTVDKSRWQQGNVFSCSVMHEALHNHYTQESLSLSP
light: not shown
notes: copies: 2 + 2
B10: IL6R-BP207/IL6R-L (antibody, human IgG1, kappa)
heavy: QVQLQESGPGLVKPSETLSLTCAVSGHSISHDHAWSWVRQPPGEGLEWIGFISYSGITNYNPSLQGRVTISRDNSKNTLYLQMNSLRAEDTAVYYCARSLARTTAMDYWGEGTLVTVSSASTKGPSVFPLAPSSKSTSGGTAALGCLVKDYFPEPVTVSWNSGALTSGVHTFPAVLQSSGLYSLSSVVTVPSSSLGTQTYICNVNHKPSNTKVDKKVEPKSCDKTHTCPPCPAPDLLGGDSVFLFPPKPKDTLMISRTPEVTCVVVDVSHEDPEVKFNWYVDGVEVHNAKTKPREEQYNSTYRVVSVLTVLHQDWLNGKEYKCKVSNKALPRPIEKTISKAKGQPREPQVYTLPPSRDELTKNQVSLTCLVKGFYPSDIAVEWESNGQPENNYKTTPPVLDSDGSFFLYSKLTVDKSRWQQGNVFSCSVMHEALHNHYTQESLSLSP
light: not shown
notes: copies: 2 + 2
B11: IL6R-BP205/IL6R-L (antibody, human IgG1, kappa)
heavy: QVQLQESGPGLVKPSETLSLTCAVSGHSISHDHAWSWVRQPPGEGLEWIGFISYSGITNYNPSLQGRVTISRDNSKNTLYLQMNSLRAEDTAVYYCARSLARTTAMDYWGEGTLVTVSSASTKGPSVFPLAPSSKSTSGGTAALGCLVKDYFPEPVTVSWNSGALTSGVHTFPAVLQSSGLYSLSSVVTVPSSSLGTQTYICNVNHKPSNTKVDKKVEPKSCDKTHTCPPCPAPDLLGGDSVFLFPPKPKDTLMISRTPEVTCVVVDVSHEDGEVKFNWYVDGVEVHNAKTKPREEQDNSTYRVVSVLTVLHQDWLNGKEYKCKVSNKALPRPIEKTISKAKGQPREPQVYTLPPSRDELTKNQVSLTCLVKGFYPSDIAVEWESNGQPENNYKTTPPVLDSDGSFFLYSKLTVDKSRWQQGNVFSCSVMHEALHNHYTQESLSLSP
light: not shown
notes: copies: 2 + 2

The target of the first assay is T1, human FcγRIIa type R (allotype R131) extracellular domain with C-terminal His tag (human, UniProt P12318 34-217).
T1 construct: extracellular domain; also called FcγRIIaR; FcγRIIa R type; not shown: His tag at the C terminus
T1 sequence (looked up): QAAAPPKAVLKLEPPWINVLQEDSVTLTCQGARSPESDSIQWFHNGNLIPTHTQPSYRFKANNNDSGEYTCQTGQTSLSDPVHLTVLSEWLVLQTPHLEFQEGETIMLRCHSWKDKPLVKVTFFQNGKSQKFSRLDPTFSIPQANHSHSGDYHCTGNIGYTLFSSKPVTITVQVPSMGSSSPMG
Nature of the assay: SPR (Biacore), antibody captured, FcγR analyte. For orientation: SPR reads the build-up and loss of mass on a sensor chip optically.
Turning to B1, the Kd came to 2.6 µM.
On the same count and under the same terms, as for B2, the figure is 3 µM.
The same measure, in the same setting: as for B3, the figure is 1 µM; as for B4, 0.96 µM.
B5 returned an equilibrium dissociation constant (Kd) of 4.5 µM.
Still for that read-out and setting: the figure for B6 is 1 µM.

The next assay deals with T2, human FcγRIIIa type V (allotype V158) extracellular domain with C-terminal His tag (human, UniProt P08637 17-208).
T2 construct: extracellular domain; also called FcγRIIIaV; FcγRIIIa V type; not shown: His tag at the C terminus
T2 sequence (P08637 17-208 F176V): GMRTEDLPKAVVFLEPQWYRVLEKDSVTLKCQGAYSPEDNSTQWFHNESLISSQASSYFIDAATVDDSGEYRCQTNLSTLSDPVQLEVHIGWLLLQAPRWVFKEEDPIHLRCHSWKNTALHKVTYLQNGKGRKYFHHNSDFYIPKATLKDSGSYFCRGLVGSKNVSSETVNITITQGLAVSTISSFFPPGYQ
Nature of the assay: SPR (Biacore), antibody captured, FcγR analyte.
As to B1, the Kd was found to be 56 µM.
Molecule B2 returned a Kd of 51 µM.
The molecule B7 had a Kd of 61 µM.
Same read-out and setting: the figure for B8 is 45 µM.
Still for that read-out and setting: the figure for B9 is 63 µM; for B10 it is 65 µM.
In the case of B11, binding was characterised by a dissociation constant (Kd) of 68 µM.
